Experimental data as given in patent US20220332795A1.
Changes are numbered by the printed parent chain.

B1: SEQ ID NO 30 (designed binder, not shown: small tags and cut ends)
chain: MLPAPKNLVVSRVTEDSARLSWTAPDAAFDSFIIHYVEQQLIGEAIVLTVPGSERSYDLTGLKPGTEYPVPITGVKGGACSWPLSAIFTT
B2: SEQ ID NO 34 (designed binder, not shown: small tags and cut ends)
chain: B1 chain with I33Y, H35T, Q39L, Q40N, I42A, T73L, A79S, C80L, W82Q
B3: SEQ ID NO 25 (designed binder, not shown: small tags and cut ends)
chain: MLPAPKNLVVSRVTEDSARLSWTAPDAAFDSFPIWYLEKSYQGEAIVLTVPGSERSYDLTGLKPGTEYVVPIIGVKGGRDSCPLSAIFTT
B4: SEQ ID NO 33 (designed binder, not shown: small tags and cut ends)
chain: MLPAPKNLVVSRVTEDSARLSWTAPDAAFDSFGIAYVESYWYGEAIVLTVPGSERSYDLTGLKPGTEYNVPIYGVKGGDGSGPLSAIFTT
B5: SEQ ID NO 35 (designed binder, not shown: small tags and cut ends)
chain: MLPAPKNLVVSRVTEDSARLSWTAPDAAFDSFPISYIESIADGEAIVLTVPGSERSYDLTGLKPGTEYWVAIVGVKGGPFSWSLSAIVTT
B6: SEQ ID NO 3 (designed binder, not shown: small tags and cut ends)
chain: B4 chain with G33N, A35E, V37A, S39T, Y40R, N69V, Y73D, D79I, G80A, G82K
B7: SEQ ID NO 27 (designed binder, not shown: small tags and cut ends)
chain: MLPAPKNLVVSRVTEDSARLSWTAPDAAFDSFRISYAETVRQGEAIVLTVPGSERSYDLTVETGYRNWVMILGVKGGPGSLPLSAIFTT
B8: SEQ ID NO 31 (designed binder, not shown: small tags and cut ends)
chain: MLPAPKNLVVSRVTEDSARLSWTAPDAAFDSFTIEYSEHPIDGEAIPLFVPGSERSYDLTGLKPGTEYYVRIHGVKGGWFSHPLWAFFTT
B9: SEQ ID NO 32 (designed binder, not shown: small tags and cut ends)
chain: MLPAPKNLVVSRVTEDSARLSWQGVARAFDSFLITYREQIFAGEVIVLTVPGSERSYDLTGLKPGTEYGVTIAGVKGGWRSKPLNAESTT
B10: SEQ ID NO 29 (designed binder, not shown: small tags and cut ends)
chain: MLPAPKNLVVSRVTEDSARLSWTAPDAAFDSFWIEYWEAVGFGEAIVLTVPGSERSYDLTGLKPGTEYFVGIYGVKGGYLSAPLSAIFTT
B11: SEQ ID NO 242 (designed binder, not shown: small tags and cut ends)
chain: MLPAPKNLVVSRVTEDSARLSWTAPDAAFDSFYIAYAEPRPDGEAIQLLVPGSERSYDLTGLKPGTEYSVLIHGVKGGLLSSPLYAAFTT
B12: SEQ ID NO 259 (designed binder, not shown: small tags and cut ends)
chain: B11 chain with L49G, Y85L, A87V
B13: SEQ ID NO 244 (designed binder, not shown: small tags and cut ends)
chain: B11 chain with Q47S, L49Q, Y85G, A87H
B14: SEQ ID NO 254 (designed binder, not shown: small tags and cut ends)
chain: B11 chain with Q47L, L49A, Y85S, A87K
B15: SEQ ID NO 269 (designed binder, not shown: small tags and cut ends)
chain: B11 chain with Q47W, L49D, Y85D, A87Y
B16: SEQ ID NO 207 (designed binder, not shown: small tags and cut ends)
chain: B11 chain with Q47H, L49S, Y85A, A87Y
B17: SEQ ID NO 267 (designed binder, not shown: small tags and cut ends)
chain: B11 chain with Q47G, L49W, Y85V, A87Y
B18: SEQ ID NO 253 (designed binder, not shown: small tags and cut ends)
chain: B11 chain with Q47I, L49H, Y85D, A87Y
B19: SEQ ID NO 263 (designed binder, not shown: small tags and cut ends)
chain: B11 chain with Q47A, L49V, Y85A, A87N
B20: SEQ ID NO 248 (designed binder, not shown: small tags and cut ends)
chain: B11 chain with Q47W, L49G, Y85H, A87T
B21: SEQ ID NO 256 (designed binder, not shown: small tags and cut ends)
chain: B11 chain with L49T, Y85H, A87Y
B22: SEQ ID NO 261 (designed binder, not shown: small tags and cut ends)
chain: B11 chain with Q47L, L49Q, Y85I, A87K
B23: SEQ ID NO 264 (designed binder, not shown: small tags and cut ends)
chain: B11 chain with Q47N, L49S, Y85D, A87Y
B24: SEQ ID NO 206 (designed binder, not shown: small tags and cut ends)
chain: B11 chain with Q47G, L49D, Y85S, A87I
B25: SEQ ID NO 262 (designed binder, not shown: small tags and cut ends)
chain: B11 chain with Q47V, L49H, Y85Q, A87I
B26: SEQ ID NO 249 (designed binder, not shown: small tags and cut ends)
chain: B11 chain with Q47V, L49E, Y85H, A87N
B27: SEQ ID NO 209 (designed binder, not shown: small tags and cut ends)
chain: B11 chain with Q47L, L49Q, E54C, Y85T, A87I
B28: SEQ ID NO 247 (designed binder, not shown: small tags and cut ends)
chain: B11 chain with Q47L, L49H, Y85R, A87S
B29: SEQ ID NO 266 (designed binder, not shown: small tags and cut ends)
chain: B11 chain with Q47R, L49Q, Y85G, A87S
B30: SEQ ID NO 250 (designed binder, not shown: small tags and cut ends)
chain: B11 chain with Q47L, L49R, A87K
B31: SEQ ID NO 245 (designed binder, not shown: small tags and cut ends)
chain: B11 chain with Q47A, L49W, Y85V, A87S
B32: SEQ ID NO 258 (designed binder, not shown: small tags and cut ends)
chain: B11 chain with Q47L, L49E, Y85V, A87F
B33: SEQ ID NO 246 (designed binder, not shown: small tags and cut ends)
chain: B11 chain with L49H, A87F
B34: SEQ ID NO 265 (designed binder, not shown: small tags and cut ends)
chain: B11 chain with Q47V, L49E, Y85T, A87S
B35: SEQ ID NO 252 (designed binder, not shown: small tags and cut ends)
chain: B11 chain with Q47V, L49H, Y85D, A87F
B36: SEQ ID NO 257 (designed binder, not shown: small tags and cut ends)
chain: B11 chain with L49G, Y85R, A87Y
B37: SEQ ID NO 204 (designed binder, not shown: small tags and cut ends)
chain: MLPAPKNLVVSRVTEDSARLSWTAPDAAFDSFFIGYLEPQPPGEAILLWVPGSERSYDLTGLKPGTEYNVTIQGVKGGFPSQFTT
B38: SEQ ID NO 270 (designed binder, not shown: small tags and cut ends)
chain: MLPAPKNLVVSRVTEDSARLSWTAPDAAFDSFAIEYCETKMCGEAIVLTVPGSERSYDLTGLKPGTEYRVPIPGVKGGTASLPLSAIFTT
B39: SEQ ID NO 205 (designed binder, not shown: small tags and cut ends)
chain: MLPAPKNLVVSRVTEDSARLSWTAPDAAFDSFFIGYLEPQPPGEAILLGVPGSERSYDLTGLKPGTEYNVTIQGVKGGFPSMPLHPLVALFTT
B40: SEQ ID NO 241 (designed binder, not shown: small tags and cut ends)
chain: MLPAPKNLVVSRVTEDSARLSWTAPDAAFDSFFIGYLEPQPPGEAIHLGVPGSERSYDLTGLKPGTEYNVTIQGVKGGFPSIPLFASFTT
B41: SEQ ID NO 203 (designed binder, not shown: small tags and cut ends)
chain: B40 chain with H47V, G49L, I82V, F85A, S87F
B42: SEQ ID NO 208 (designed binder, not shown: small tags and cut ends)
chain: B40 chain with H47V, G49A, I82Y, F85V, S87A
B43: SEQ ID NO 243 (designed binder, not shown: small tags and cut ends)
chain: B40 chain with G49A, I82V, F85A, S87V
B44: SEQ ID NO 251 (designed binder, not shown: small tags and cut ends)
chain: B40 chain with H47G, G49W, I82D, F85Q, S87V
B45: SEQ ID NO 260 (designed binder, not shown: small tags and cut ends)
chain: B40 chain with F33Y, G35A, L37A, Q40R, P42D, G49R, I82M, F85S, S87I
B46: SEQ ID NO 255 (designed binder, not shown: small tags and cut ends)
chain: B40 chain with H47L, G49F, I82T, F85S
B47: SEQ ID NO 210 (designed binder, not shown: small tags and cut ends)
chain: B40 chain with H47N, G49Q, I82F, F85S, S87V
B48: SEQ ID NO 268 (designed binder, not shown: small tags and cut ends)
chain: MLPAPKNLVVSRVTEDSARLSWTAPDAAFDSFYIAYAEPRPDGEAIYLEVPGSERSYDLTGLKPGTEYSVLIHGVKGGLLSSPLFTT

What follows are binders tested against human serum albumin (human) (UniProt P02768) (assay: primary solution ELISA screen).
Sequence of human serum albumin (human) (P02768 25-609 limits assumed): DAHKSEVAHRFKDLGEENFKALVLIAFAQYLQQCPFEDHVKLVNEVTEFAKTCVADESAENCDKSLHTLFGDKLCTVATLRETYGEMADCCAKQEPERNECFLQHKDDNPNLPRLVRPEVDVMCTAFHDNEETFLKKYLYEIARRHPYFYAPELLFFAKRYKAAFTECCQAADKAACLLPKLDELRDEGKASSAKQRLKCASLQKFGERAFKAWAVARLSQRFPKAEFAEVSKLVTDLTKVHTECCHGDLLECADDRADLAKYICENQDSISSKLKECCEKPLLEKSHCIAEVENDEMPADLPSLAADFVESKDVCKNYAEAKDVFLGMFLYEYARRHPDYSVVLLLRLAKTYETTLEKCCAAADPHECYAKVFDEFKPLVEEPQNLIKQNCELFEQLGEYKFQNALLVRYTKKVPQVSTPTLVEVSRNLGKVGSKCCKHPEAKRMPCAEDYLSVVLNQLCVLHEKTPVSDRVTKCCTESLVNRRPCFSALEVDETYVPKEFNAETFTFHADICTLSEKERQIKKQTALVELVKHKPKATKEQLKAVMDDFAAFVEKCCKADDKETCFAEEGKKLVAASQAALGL

Binder	RLU
B1	4450 RLU
B2	8100 RLU
B3	3850 RLU
B4	2050 RLU
B5	18800 RLU
B6	9950 RLU
B7	2350 RLU
B8	4650 RLU
B9	4550 RLU
B10	3750 RLU

The binders below were run against human serum albumin (human) (UniProt P02768) (assay: solution ELISA screen (luminescence)).

Binder	RLU
B11	20400 RLU
B12	25400 RLU
B13	18000 RLU
B14	21500 RLU
B15	19900 RLU
B16	121000 RLU
B17	29800 RLU
B18	37700 RLU
B19	23800 RLU
B20	34000 RLU
B21	76100 RLU
B22	174000 RLU
B23	24400 RLU
B24	14000 RLU
B25	30900 RLU
B26	24100 RLU
B27	17800 RLU
B28	19000 RLU
B29	36200 RLU

Binder	RLU
B30	48400 RLU
B31	18400 RLU
B32	26500 RLU
B33	25800 RLU
B34	30700 RLU
B35	72800 RLU
B36	29800 RLU
B37	20000 RLU
B38	64400 RLU
B39	155000 RLU
B40	26600 RLU
B41	26000 RLU
B42	16400 RLU
B43	30900 RLU
B44	26100 RLU
B45	33400 RLU
B46	102000 RLU
B47	48600 RLU
B48	117000 RLU
